From patent publication US20250277030A1, “ANTI-NAPI2B ANTIBODIES AND METHODS OF USE” (Zymeworks BC Inc., priority 2022, published 2025)

Tests used:
[1] = system: ssDNA; assay: NS-ELISA non-specific binding, ssDNA; conditions: mAb at 100 nM
Description: (§1) The isoelectric point was measured by capillary isoelectric focusing (cIEF), the propensity for self-aggregation was measured by Affinity-capture self-interaction nanoparticle spectroscopy (AC-SINS) and non-specific binding was measured by NS-ELISA, as described below.
(§2) NS-ELISA was used to measure the propensity of the antibodies to bind to a range of biomolecules to emulate the undesirable non-specific interactions to biological matrices in vivo as described below.
(§3) NS-ELISA was carried out in Corning®96-well EIA/RIA Easy Wash™ Clear Flat Bottom Polystyrene High Bind Microplate coated overnight at 4° C. with 50 μL of Heparin (Sigma, H3149) diluted with 50 mM sodium carbonate pH 9.6 to a final concentration of 250 μg/mL. The plate was incubated for 2 days at room temperature, wells that were coated with heparin were not covered to allow air dry. […] Reactions were stopped after approximately 10 minutes by adding 100 μL of 1 M HCl to each well, and absorbance was read at 450 nm. Binding scores were calculated as the ratio of the ELISA signal of the antibody (antibody-treated) to the signal of a well containing buffer instead of the primary antibody (untreated). The cutoffs considered for each binding molecule (ssDNA, KLH, insulin, dsDNA and heparin) were internally calculated, based on the average of Zymeworks Inc. produced antibodies and antibodies benchmarks published in the literature.

[2] = system: KLH; assay: NS-ELISA non-specific binding, KLH; conditions: mAb at 100 nM
Description: as §1, §2, §3

[3] = biological target: T1, NaPi2b expressed on TOV-21G cells (Homo sapiens, UniProt O95436); assay: Cellular binding to TOV-21G cells by flow cytometry (Example 19); conditions: NB = no binding (apparent Kd >150 nM)
T1 construct: IGROV-1 and TOV-21G cells express endogenous NaPi2b at high and moderate levels, respectively; endogenous in cells; host or cells: TOV-21G
T1 sequence (O95436 1-690): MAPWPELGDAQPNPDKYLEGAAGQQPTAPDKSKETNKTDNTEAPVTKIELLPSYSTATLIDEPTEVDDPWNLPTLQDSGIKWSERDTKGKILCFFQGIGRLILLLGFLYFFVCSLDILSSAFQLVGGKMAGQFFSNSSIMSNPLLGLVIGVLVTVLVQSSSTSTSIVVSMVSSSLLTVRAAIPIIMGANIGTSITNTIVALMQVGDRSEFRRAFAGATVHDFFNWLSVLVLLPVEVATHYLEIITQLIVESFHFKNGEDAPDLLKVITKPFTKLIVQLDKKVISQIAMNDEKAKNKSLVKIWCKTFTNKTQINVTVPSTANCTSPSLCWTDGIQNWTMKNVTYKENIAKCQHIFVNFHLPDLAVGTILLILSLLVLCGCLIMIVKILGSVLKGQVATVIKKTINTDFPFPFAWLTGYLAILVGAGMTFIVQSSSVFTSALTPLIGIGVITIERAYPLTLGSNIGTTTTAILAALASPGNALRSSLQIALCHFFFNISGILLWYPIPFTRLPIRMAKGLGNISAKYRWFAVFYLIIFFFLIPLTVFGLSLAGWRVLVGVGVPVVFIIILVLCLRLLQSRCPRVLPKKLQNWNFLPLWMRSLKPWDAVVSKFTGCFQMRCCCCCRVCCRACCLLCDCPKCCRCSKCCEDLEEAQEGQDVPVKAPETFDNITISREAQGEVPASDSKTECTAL
Description: Briefly, cells were seeded at 50,000 cells/well in conical-bottom 96-well plates and treated with test antibody for 24 hours at 4° C. to prevent internalization. Palivizumab (anti-RSV antibody, v22277) was included as a negative control. […] Following incubation, cells were washed and stained with anti-Human IgG Fc AF647 conjugate (Jackson Immuno Research Labs, West Grove, PA; Cat. No. 109-605-098) at 4° C. for 30 min. Following incubation and washing, fluorescence was detected by flow cytometry on a BD LSRFortessa™ Cell Analyzer (BD Biosciences, Franklin Lake, NJ) with 1,000 minimum events collected per well. The AF647/APC-A GeoMean (fluorescence signal geometric mean, proportional to anti-Human AF647 binding) was calculated for the live cell population using FlowJo™ Version 10.8.1 (BD Biosciences, Franklin Lake, NJ) and plotted for each test antibody using GraphPad Prism Version 9 (GraphPad Software, San Diego, CA).
The ability of the humanized antibody variants v38591 and v29456 to bind to NaPi2b expressed on cells was assessed on endogenous NaPi2b-expressing tumor cell lines IGROV-1 (ovarian adenocarcinoma) and TOV-21G (ovarian carcinoma) by flow cytometry. IGROV-1 and TOV-21G cells express endogenous NaPi2b at high and moderate levels, respectively, as described in Example 10.
Cellular binding was performed according to methods described in Example 13.

B1: v29456: humanized anti-NaPi2b IgG1/kappa antibody H1L2; VH SEQ ID NO:24, VL SEQ ID NO:29 (antibody, V domains shown)
VH: QVQLVQSGAEVKKPGASVKVSCKASGFTFTSYNVHWVRQAPGQGLEWMGAISPGNGDLSYAQKFQGRVTMTRDTSTSTVYMELSSLRSEDTAVYYCARGRTGMGAVDYWGQGTLVTVSS
VL: DVQMTQSPSSLSASVGDRVTITCRASQDVYSYLNWYQQKPGKAVKLLIYYTSRLQSGVPSRFSGSGSGTDYTLTISSLQPEDFATYYCQQYNIFPWTFGQGTKLEIK
modifications: v29452, v29456, v29460 VH (H1); v29453, v29454, v29455, v29456 VL (L2)
- NS-ELISA binding score (ratio of signal between antibody-treated and untreated), ssDNA [1]: 1.06
- NS-ELISA binding score (ratio of signal between antibody-treated and untreated), KLH [2]: 1.37
- Bmax [3]: 11,271
- Curve Hill Slope (h) [3]: 1.1
- Kd [3]: 0.6 nM
